This note sets out measurements from US20060246520A1, “Gamma delta t cell-mediated therapy” (INSTITUT NATIONAL DE LA SANTE ET DE LA RECHERCHE MEDICALE, priority 2003, published 2006).

One assay concerns K562 cells. Description: PE-labelled TCR tetramer staining of serum-depleted K562 cells incubated with apolipoproteins or competing mAb. The assay is classed as cell-based, human. The following applies: serum-depleted K562, apolipoprotein preparations 100 μg/ml. Here is the method:
FIG. 3: Vγ9Vδ2 TCR binding to tumor cells and apoA-I. PE-labeled tetrameric TCRs from clone G115 and clone 73R9 were used to stain tumor cell lines and assess the influence of apolipoproteins on their tumor recognition. Shaded histograms: concentration-matched streptavidin-PE alone. Line histograms: binding of the indicated PE-labelled tetrameric TCR. (a) Cell lines were cultured in 10% fcs before staining with tetramers. (b) K562 cells were serum-depleted, incubated with 10% human serum or the indicated apolipoprotein preparations (100 μg/ml) and stained with G115 or 73R9 TCR tetramers. (c) Serum-depleted K562 cells were incubated with 100 μg/ml of HDL hApoA-I (left histogram) or hM5L (right histogram) and labeled with G115 TCR tetramers in the presence of the indicated competing mAb (20 μg/ml). […] Data are representative of three experiments.
Immunofluorescence stainings were performed in PBS containing 1% BSA and devoid of serum using FITC-conjugated goat F(ab)′2 anti-mouse Ig antibody (Caltag) as the second step reagent. Irrelevant isotype-matched control antibodies were used as negative controls. In apolipoprotein binding experiments, serum-deprived cells were incubated with serum or purified protein preparations in PBS containing 1% BSA, at room temperature, 30 minutes prior to antibody staining. 7H10 (anti-α-ATP synthase) and 3D5 (anti-β-ATP synthase) and 7F9 (anti-γ-ATP synthase) are from Molecular Probes. 4H1 (anti-human apoA-I) (Collet et al., 1997) was obtained from Dr Y. Marcel (Ottawa).
The G115 (Vγ9Vδ2) (3) and 73R9 (Vγ8Vδ3) extracellular γ and δ chains (the latter carrying a short 3′ Biotin tag) were expressed in Escherichia coli, then refolded together by rapid dilution in 1 L of 1 M L-arginine, 0.1 M Tris-HCl, pH 8.0 and 0.2 mM reduced/0.2 mM oxidized glutathione. After dialysis against 10 mM Tris-HCl pH 8.0, concentration by cation exchange chromatography at pH 5.5, and purification by size exclusion chromatography at pH 8.0, the refolded protein was biotinylated for 4 h at 30° C. with 6 μg/ml BirA and excess of free biotin was removed by dialysis against 10 mM Tris-HCl pH 8.0, 150 mM NaCl. Tetramers of γδ TCR heterodimers were obtained by mixing the biotinylated TCR with phycoerythrin-labeled streptavidin (Biosource) at a molar ratio of 10:1. For staining, 2.10^5 cells were incubated at room temperature for 45 min with phycoerythrin-labeled γδ TCR tetramers at a concentration of TCR of 30 μg/ml in PBS plus 1% BSA. Background staining was determined using phycoerytlrin-labeled streptavidin at the same concentration.

The test system of another assay is Vγ9Vδ2 T cells. In words: TNFα secretion by T cell clones stimulated with protein-coated latex beads. The format is cell-based, human. To be noted: serum-free (sfm). The text has this: FIG. 6: Induction of Vγ9Vδ2 T cell lymphokine secretion by immobilized ATP-synthase. HDL-derived apoA-I and ATP synthase were immobilized on latex beads and these were used to stimulate T cell populations. none: no stimulation; empty: beads saturated with BSA; apoA-I: beads coated with apoA-I only. AS: beads coated with the F1 extra-membrane subunit of bovine ATP synthase. AS/apoA-I: beads coated with both protein preparations.
[…] The capacity of γδ clones G25, G115, 73R9 to secrete significant amounts of TNFα upon stimulation was checked by using Daudi cells as target cells as well as PMA/ionomycin or PHA. The αβ clone A4.19 secretes saturating quantities of TNFα upon PMA/ionomycin or PHA stimulation (not shown). […]
2 h- ^51Cr-release assays were performed in standard conditions except for the use of serum-free conditions in some experiments: in sensitization experiments with apolipoprotein preparations, target tumor cells were serum-deprived as described for facs analysis, loaded with ^51Cr (100 μCi/10^6 cells, 1 hour, 37° C.), extensively washed in RPMI and resuspended in sfm medium. […] Specific lysis was calculated as the percentage of maximum release. […] IFNγ was titrated by a specific Elisa technique, whereas TNFα concentration was assessed by a biological assay based on WEHI cells viability. […]

A further assay relates to immobilized Vγ9Vδ2TCR. Description: SPR: purified apolipoprotein binding to immobilized Vγ9Vδ2TCR. Also on record: species or system human. To be noted: soluble proteins injected at 100 μg/ml; immobilized TCR 335 RU. The text has this: FIG. 7. Surface plasmon resonance analysis. Soluble proteins were exposed to the sensorchip surface for 240 s (association phase) followed by a 240-s flow running (dissociation phase). Immobilized proteins were on sensorchips flowcell 2. Sensorgrams are representative of specific interactions (differential response) where non-specific binding that occurred on flow cell 1 (with no protein immobilized) was deduced from binding that occurred on flow cell 2. Results are expressed as resonance units (RU) as a function of time in seconds.
(c) Comparative sensorgrams of purified apoA-I (full line) and apoA-II (dotted line) binding to immobilized Vγ9Vδ2TCR (proteins were injected at 100 μg/ml). Amount of immobilized TCRγδ protein was 335 RU on flow cell 2.
ApoA-I and ATP synthase (F1 subunit) were immobilized by amine linkage on CM5 chips (Biacore AB) following NHS-EDC activation; Vγ9Vδ2-biotinylated soluble TCRs were immobilized on SA streptavidin-coated chips (Biacore AB) and binding was analyzed in a Biacore 3000 apparatus (BiacoreAB). Soluble ligands were injected at a flow rate of 20 μl/min, exposed to the surface for 240 s (association phase) followed by a 240-s flow running during which the dissociation occurred. […] Results are expressed as resonance units (RU) as a function of time in seconds.

The subject of another assay is Raji cells. In words: 125I-labelled free apoA-I binding assay on Raji cells. The following applies: 2 hours at 4° C. On the set-up: species or system human. Here is the method: (§1) (e): ^125I-labelled free apoA-I binding was measured after 2 hours incubation at 4° C. on Daudi and Raji cells. Top and bottom panels: binding isotherm of ^125I-labeled free apoA-I to Daudi (top) and Raji (bottom) cells. (◯): total binding, (σ): non-specific binding; (●): specific binding. Middle panel: Scatchard representation of specific binding on Daudi cells.
(§2) The binding experiments were performed at 4° C. for 2 hours as previously described (Barbaras et al., 1994). Briefly, cells (9 μg of cell proteins per point) were incubated in PBS for 2 hours at 4° C. with increasing concentrations of labeled apoA-I. Cells were filtered on 0.22 μm filters (GVWP Millipore-France) and washed four times with 1% BSA in PBS. Filters were used for radioactivity measurements. Non-specific binding was determined in the presence of a 100-fold excess (as compared to the KD value) of the corresponding unlabeled ligand. Binding was analyzed using a weighted non-linear curve-fitting program, based on the LIGAND analysis program (Prism-GraphPad).

The subject of assay [1] is Daudi cells. In words: 125I-labelled free apoA-I binding assay on Daudi cells (Scatchard). Also on record: species or system human. The following applies: 2 hours at 4° C.; single binding receptor; read-out: KD of binding to Daudi cells (Scatchard analysis). The method, then:
as §1, §2

Assay [2] addresses single binding receptor for apoA-I on Daudi cells. In words: Scatchard analysis of 125I-labelled free apoA-I binding to Daudi cells, 2 h at 4° C.
Assay [3] has as its target human lipid-free apoA-I prepared from high density lipoprotein particles (HDL-apoA-I) (human) (UniProt P02647). In words: SPR (Biacore 3000), apoA-I immobilized (2260 RU), TCR injected at 125 nM to 2 µM. A general note: Surface plasmon resonance follows binding to a sensor surface in real time, without labels.
UniProt P02647, sequence (P02647 25-267 limits assumed): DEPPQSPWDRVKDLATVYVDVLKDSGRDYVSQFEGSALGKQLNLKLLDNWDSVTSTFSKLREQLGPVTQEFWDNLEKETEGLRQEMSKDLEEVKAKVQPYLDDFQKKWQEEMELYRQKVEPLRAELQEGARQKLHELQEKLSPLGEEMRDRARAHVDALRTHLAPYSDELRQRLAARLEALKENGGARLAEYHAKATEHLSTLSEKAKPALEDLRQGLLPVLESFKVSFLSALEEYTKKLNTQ
The target of assay [4] is purified bovine ATP synthase (F1 subunit) (bovine) (UniProt P19483). Description: SPR (Biacore 3000), ATP synthase (F1) immobilized (22440 RU), TCR injected at 0.5 to 4 µM.
For assay [5], the system named is Daudi cells. Description: 51Cr release assay of Daudi cytolysis by effector T cell clones in serum-free medium. The format is cell-based, human. The following applies: serum-depleted targets. Here is the method: FIG. 2: ApoA-I-dependent activation of Vγ9Vδ2 T cells. ^51Cr release assays were performed in serum-free medium (sfm) to assess dependance on serum and apoA-I of Daudi cytolysis by different effector T cell populations. G25 and G42: Vγ9Vδ2 T cell clones, 73R9: Vγ8Vδ3 T cell clone. M5L (bovine serum component immunopurified with M5 antibody) was tested at the indicated concentration for its ability to substitute for serum (fcs). Recombinant annexin V was used as a control purified protein.
2 h- ^51Cr-release assays were performed in standard conditions except for the use of serum-free conditions in some experiments: in sensitization experiments with apolipoprotein preparations, target tumor cells were serum-deprived as described for facs analysis, loaded with ^51Cr (100 μCi/10^6 cells, 1 hour, 37° C.), extensively washed in RPMI and resuspended in sfm medium. Effector T cells cultivated in serum-containing medium were washed extensively in RPMI, incubated for 2 hours in sfm at 37° C. and resuspended in sfm medium. […] Specific lysis was calculated as the percentage of maximum release. […] IFNγ was titrated by a specific Elisa technique, whereas TNFα concentration was assessed by a biological assay based on WEHI cells viability.

In the case of “apoA-II: purified apolipoprotein A-II, control of hydrophobicity similar to that of apoA-I [reference compound]”, in the assay with K562 cells, the “effect on Vγ9Vδ2 TCR tetramer binding to K562” value is recorded as “did not enhance”.

Turning to apolipoprotein A-I [apoA-I], in the assay with K562 cells, the “effect on Vγ9Vδ2 TCR tetramer binding to K562” value is listed as “increased” and the “effect on binding of Vγ8Vδ3 TCR tetramers to K562” value was “neither serum, nor apoA-I, affected the binding”. For the same molecule, in the assay on Vγ9Vδ2 T cells, the “stimulatory activity on Vγ9Vδ2 T cells in serum-free conditions” value is reported as “relatively minor increase”. The “interaction with immobilized G115 TCR” value with immobilized Vγ9Vδ2TCR was “specifically interacted”. Further, in the assay on Raji cells, the “specific binding on Raji cells” value is recorded as “absence of specific binding”. Moreover, in the assay on Daudi cells [1], the Kd (usually the concentration at which binding is half-saturated) amounted to 80 nM.

Take “hM5L: human serum ligand of M5 mAb, immunopurified; identity to apoA-I confirmed”: the “effect on Vγ9Vδ2 TCR tetramer binding to K562” value in the assay on K562 cells was “increased”.

Molecule “human lipid-free apoA-I prepared from high density lipoprotein particles (HDL-apoA-I) (from UniProt P02647 25-267) (ligand)” gave a dissociation constant (Kd) in assay [2] of 80 nM.

With soluble monomeric G115 TCR (Vγ9Vδ2), in assay [3], the dissociation constant Kd worked out at 810 nM; the koff (commonly the first-order rate constant of dissociation) was 0.00713 s⁻¹; the association rate constant (kon) – broadly, a measure of how fast the partners come together – was 8800 M⁻¹ s⁻¹. Also, in [4], the equilibrium dissociation constant (Kd) came out at 1510 nM, the koff is 0.00254 s⁻¹ and the association rate constant (kon) amounted to 1680 M⁻¹ s⁻¹.

B1: M5L: bovine serum component immunopurified with M5 antibody, ~28 kDa, identified as apolipoprotein A-I (protein, UniProt P15497 25-265, looked up)
Apolipoprotein A-I: DDPQSSWDRVKDFATVYVEAIKDSGRDYVAQFEASALGKQLNLKLLDNWDTLASTLSKVREQLGPVTQEFWDNLEKETASLRQEMHKDLEEVKQKVQPYLDEFQKKWHEEVEIYRQKVAPLGEEFREGARQKVQELQDKLSPLAQELRDRARAHVETLRQQLAPYSDDLRQRLTARLEALKEGGGSLAEYHAKASEQLKALGEKAKPVLEDLRQGLLPVLESLKVSILAAIDEASKKLNAQ
With B1, the “effect on Daudi cell lysis by control Vγ8Vδ3 T cell clone (#73R9)” value in the assay on Daudi cells [5] is “neither affected by serum deprivation nor by addition of M5L”. The “effect on Vγ9Vδ2 T cell-mediated lysis of Daudi cells” value with Daudi cells [5] (Vγ9Vδ2 clones G25, G42) is “increased Vγ9Vδ2 T cell-mediated lysis in a dose-dependent manner”.
